test system: Saccharomyces cerevisiae; assay: transcriptional activation domain activity (GFP:mCherry ratio, weighted mean of sorted bins, harmonized to initial dataset scale) (arbitrary fluorescence ratio units); higher = stronger transcriptional activation; conditions: beta-estradiol 1 µM; induction time 4 h
How it was run: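 Activation activity, the read-weighted mean of bin median fluorescence averaged across barcodes, was linearly mapped onto the scale of the initial dataset. It was measured for barcoded protein tiles fused to an estradiol-inducible synthetic transcription factor at URA3 in GFP-reporter yeast diploids. Cultures diluted 1:5 into SC with 1 uM beta-estradiol were held 4 hours at 30 °C, sorted into 8 bins by GFP:mCherry ratio, and barcode-sequenced, and tiles under 50 reads were discarded.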

Row | Sequence | transcriptional activation domain activity
1 | NNGKGQGKRRASSSALAAEKMVEKEAWLRSPKAVCTLSIAVMRSALHLMNAHL | 67700
2 | LTHEFRMGLIPLGLVALLSSGTTLTLICFICWRLVTWKLHYNTFLGYNQYVLL | 50400
3 | AAAAREKAEAERKEKAEKEERERLEREKREVEAERKKVAAAAARAEKEKAKAA | 13400
4 | PQQAQAQKEPKKPKPPPPPAAPPGPPPPPRAPPPPPPPPPPPPGGGGAPPPPA | 27600
5 | APSDTNGNGKRKQTKSRNGCTTCKAKRLKCDETKPHCKQCARRSVQCGGYRKE | 39400
6 | IVEGLLGVDFIWQDNLPDLIDQFTNLLTLGLDFQAIDFHGGLSWNYLPSTFIN | 63500
7 | FGFFSFSSFFFFLVLLYLFSFFFFLDFLSFSFLFPDIHSRIVINHNLVGNFFF | 44600
8 | AASAPAASSPSASAPADEAAENGEEAASSSKNKKKKKKGAAGGAAPAAGGKKP | 40700
9 | TAPAPEAAAEPAPAAEAEAPAAETAEAPKEEAKDEKKPEKEKKVSRRLSSRVT | 32400
10 | FTKVIKLVSHFVLYFINICFILITIFFGYFYNLIKFYILLTLYLVSLRTLLSL | 47700
11 | GTAIEGLVIRFYIRKYEDSNNNNLEQNKTGQVRVSSPRAYLRIVGYTWVLAWF | 38700
12 | IRLELGIIEDFFGLTLCMSKYLLYHYVISLKLSACFFAVHGYAPNGLDYPWVL | 55000
13 | LVLQTDFLLMVERVDVCLEFLEAHRDFREVEIYLLRFQQCLTRAMTLIKMFFV | 51900
14 | FVTFVFCPPLLAFAHRFGRKVLKRIILALLAFHLVIVLLSSAIMSPYDELHPK | 34300
15 | PYIALIVLDVILIKLGSGRHIEYIQYVLTRATVKETEVLDFYAHIIYTTTLLI | 28800
16 | MLGKGRIMEYLLTFVWGFGVHILIFYLSCTGVIMGFLLIYTYSTFCFCFHHYV | 67600
17 | NTLDVSEGNQVINESASTNTSSALNCQSYTNNQDIMDILFQVTSGSVWDEFFV | 149000

Row | Sequence | transcriptional activation domain activity
18 | STHRIRCRNAEEPGGRARCRLVVGRRAPAGARDEVPSHFSEEELVASVVGVVV | 73000
19 | VALTFYFLFLLFLILLRLGLISCFVFFNFWYIYHFFYLSINLSIFFISFHSFI | 78300
20 | PMAVTLIERNVILGLRNAKTTDQLNTLINSLPFNNTSMLFLRLAMTKLSVIWS | 59900
21 | STIHNLAELVFLEELCGFCCFSMRFVVFLDLFGTIILPATCVYIGYLIYVIAT | 44600
22 | MYSIGVLTWKHDIGFFEDLLWSWCRVCFERYYTNVSPCTKLLSMELLLNCLLG | 69100
23 | LCYQRMLLRVLLSFCDWIIKLESASQASKLGESMILARRSVDLLVIAIINVGT | 40700
24 | RSHAGRGRSRSREKHEHHRSHHHREKRRRESEIERRDSKRAASPKSKPSENIH | 27100
25 | VFLKVYLLNPLHMTRFADLLYQGAILNRIFQPYESHLQYLLQWMCDYNLYGCA | 71200
26 | KGIAGLGPTKTIGLFVVLYIATAIFVFVYIVMQFLLVFGTLTERWPAGHLAFC | 52200
27 | SLLVLCECLLMTIGVVFTTPHVDFIYRCVNTVTPTTMVYFVVCVLFNHLVILL | 73100
28 | MFWLSVSCYTYKIIRFYYADCGLVGVLKDQVQQCWIHLSYDLVYQYLPNLLNW | 69400
29 | ADRTSRRRDDRSRSRDRGSSRRDSDRHRHHSRRSSRAERTKKEESQGNGTVPD | 17800
30 | MYFIILAFVWCFCSCFCFRCVAFWWPLSLSLCLSVGIYLLAFFFFFTTLVLVY | 26200
31 | SQVCLDSFGLLFAVVAYPCTSLLLLIFILASFLTFQAIFTLFPLFRLLAFFCL | 41700
32 | NHCKVFFLSFLFFVIYNYLLFILFFYILLLYCYPKPLFPLLSSSPPSFPPQFI | 50300
33 | IRIADMHANFFYKNINYTLSLFIFQIWCHFNSTYLFDYTLLMLFNLLFTSLPV | 37100
34 | AFLCWVAPNNATANFIGAGFGGMGFLNLSLDWSNISNLYNLFLTPWWTQVVVY | 83700

From the supplement of paper PMC12636428
